The source of these data is patent publication US20240350646A1, “METHODS AND COMPOSITIONS FOR DELIVERY TO AND ACROSS THE BLOOD BRAIN BARRIER” (NUtech Ventures, priority 2021, published 2024).

Like-named read-outs stand apart in the source and are kept apart here.

For data set [1] the following is noted: middle aged humans of around 40 years of age; cited from earlier work.
The next data set has as its target T1, human claudin-1 (Homo sapiens, UniProt O95832).
T1 construct: made in house
T1 sequence (O95832 1-211): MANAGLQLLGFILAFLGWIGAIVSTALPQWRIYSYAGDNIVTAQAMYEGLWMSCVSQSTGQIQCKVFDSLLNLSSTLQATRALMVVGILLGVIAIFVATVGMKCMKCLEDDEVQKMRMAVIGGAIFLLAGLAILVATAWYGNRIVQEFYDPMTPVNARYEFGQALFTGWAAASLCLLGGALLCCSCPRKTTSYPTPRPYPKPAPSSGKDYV
As to the kind of experiment: Microscale thermophoresis (MST) binding. The method, then: Human claudin-1 was expressed and purified as reported previously (Vecchio & Stroud, 2019, PNAS USA, 116:17817-24). MST measurements were performed using a Monolith instrument (NanoTemper Technologies). For experiments with human claudin-1, the assay buffer contained 10 mM Tris HCl, pH 8.0, 100 mM NaCl, 4% glycerol, and 0.04% n-Dodecyl-β-D-Maltopyranoside (β-DDM). NPs and peptides were labeled with AF647 prior to MST analysis as described above. For the binding experiments, the concentration of human claudin-1 was varied from 2.2-73,500 nM and the AF647-labeled C1C2-NP was fixed at 70 nM, while the AF647 labeled NPs and AF647 labeled C1C2 peptide were fixed at 1 and 0.3 μM, respectively. Binding of the AF647 labeled C1C2-NP to human claudin-3, -4, and -9 were tested using 0.4-14000 nM, 0.8-28000 nM, and 0.6-20000 nM, respectively; with the AF647 labeled C1C2-NP fixed at 70 nM. This assay buffer was similar, except β-DDM was replaced with 0.1% n-Undecyl-β-D-Maltopyranoside (beta-UDM). In order to check non-specific binding of β-DDM micelles to the AF647 labeled C1C2-NP, the concentration of beta-DDM was varied from 0.03-900 μM and the concentration of the AF647-labeled C1C2-NP was fixed at 1 μM. A similar experiment was performed wherein the concentration of beta-UDM was varied from 0.3-10,000 μM and the concentration of AF647-labeled control NP was fixed at 1 μM. The non-specific binding of human claudins 4 and 9 to the NP was examined by varying the concentrations of human claudins 4 and 9 from 0.7-20,100 nM and 0.8-31,100 nM, respectively. The human claudin sub-dilutions were mixed with the NPs or peptides and loaded in standard monolith NT.115 capillary tubes for measurement. All experiments were conducted at 23° C. using the nano-red channel of the Monolith instrument and the data were analyzed by using either Monolith analysis software or Graph Pad Prism, version 9 (Graph Pad Software, San Diego, California).

`CNC[C@H](O)[C@@H](O)[C@H](O)[C@H](O)CO.CNC[C@H](O)[C@@H](O)[C@H](O)[C@H](O)CO.O=C([O-])CN(CCN(CC(=O)[O-])CC(=O)O)CCN(CC(=O)O)C(COCc1ccccc1)C(=O)[O-].[Gd+3]` (stereo not drawn) [MultiHance]: the “K^trans, hippocampus” value in data set [1] is roughly 0.001 min⁻¹.

For “C1C2 peptide: Peptide SSVSQSTGQIQSKVDSLLNLNSTQATR (SEQ ID NO: 6) purchased from Genscript; binds first extracellular loop of claudin-1 (Ac-SSVSQSTGQIQSKVDSLLNLNSTQATR-NH2)”, the “Binding to human claudin-1 (in words)” value with human claudin-1 is on record as “little binding”; with human claudin-1 (listed as C1C2 peptides) it was “no binding”.
